Measured values published in article PMC9702538.

Key:
[1] = target: recombinant zebrafish Comp (cartilage oligomeric matrix protein) (zebrafish); test: non-reducing agarose/polyacrylamide composite gel electrophoresis; purified recombinant Comp; 0.5% agarose/3% polyacrylamide composite gel, SDS sample buffer with 2 M urea, non-reducing; immunoblot with guinea pig antibodies to zebrafish Comp; recombinant rat COMP as marker of the pentamer
[2] = target: zebrafish Comp, tissue-derived (zebrafish (endogenous in 5 dpf whole zebrafish)); test: non-reducing agarose/polyacrylamide composite gel electrophoresis; sequential extracts (TBS; 1 M NaCl/EDTA; 8 M urea) of whole 5 dpf zebrafish; 0.5% agarose/3% polyacrylamide composite gel, non-reducing; immunoblot with guinea pig antibodies to zebrafish Comp

Substance	stoichiometry N [1]	stoichiometry N [2]
recombinant zebrafish Comp (cartilage oligomeric matrix protein)	5	–
zebrafish Comp, tissue-derived (natural protein)	–	5
